# Reference: patent US10517958B2, “Compositions and methods for the treatment of platinum-drug resistant cancer” (ZYMEWORKS INC., priority 2016, dated 2019)
# Test system: UM-UC13 parental and ex vivo cells
# Experiment: Internalization assay (confocal microscopy)
# Format: cell-based, human
# Conditions: ex vivo and in situ G0-G6 tumor cells
# Experimental: UM-UC13 parental and ex vivo cells were seeded to cover slips and grown to 80% confluency. 100 nM rVAR2-V5 was incubated with the cells for 1 hour at 37° C. and 5% CO2. Cells were subsequently washed with PBS prior to fixation with 4% paraformaldehylde for 15 min at room temperature followed by permeabilization with 0.5% trition for 3 mins and blocked with 3% BSA for 30 mins. Cells were then incubated with primary Anti-V5 antibody from ThermoFischer (R960-25) according to manufacturer's instructions followed by 1 hour incubation with anti-mouse AlexaFluor488 secondary antibody from Invitrogen (A-21202). Cover slips were washed with PBS and mounted in mounting media containing DAPI and analyzed by laser-scanning confocal microscopy.
molecule,measurement,value
"rVAR2: ID1, DBL2X and ID2a domains of the full-length malarial VAR2CSA protein linked to a C-terminal V5 tag (protein) GHSDSGKYDPCEKKLPPYDDNDQWKCQQNSSDGSGKPENICVPPRRERLCTYNLENLKFDKIRDNNAFLADVLLTARNEGEKIVQNHPDTNSSNVCNALERSFADLADIIRGTDQWKGTNSNLEKNLKQMFAKIRENDKVLQDKYPKDQKYTKLREAWWNANRQKVWEVITCGARSNDLLIKRGWRTSGKSDRKKNFELCRKCGHYEKEVPTKLDYVPQFLRWLTEWIEDFYREKQNLIDDMERHREECTREDHKSKEGTSYCSTCKDKCKKYCECVKKWKTEWENQENKYKDLYEQNKNKTSQKNTSRYDDYVKDFFEKLEANYSSLENYIKGDPYFAEYATKLSFILNPSDANNPSGETANHNDEACNCNESGISSVGQAQTSGPSSNKTCITHSSIKTNKKKECKDVKLGVRENDKDLKICVIEDTSLSGVDNCCCQDLLGILQENCSDNKRGSSSNDSCDNKNQDECQKKLEKVFASLTNGYKCDKCKSGTSRSKKKWIWKKSSGNEEGLQEEYANTIGLPPRTQSLYLGNLPKLENVCEDVKDINFDTKEKFLAGCLIVSFHEGKNLKKRYPQNKNSGNKENLCKALEYSFADYGDLIKGTSIWDNEYTKDLELNLQNNFGKLFGKYIKKNNTAEQDTSYSSLDELRESWWNTNKKYIWTAMKHGAEMNITTCNADGSVTGSGSSCDDIPTIDLIPQYLRFLQEWVENFCEQRQAKVKDVITNCKSCKESGNKCKTECKTKCKDECEKYKKFIEACGTAGGGIGTAGSPWSKRWDQIYKRYSKHIEDAKRNRKAGTKNCGTSSTTNAAASTDENKCVQSDIDSFFKHLIDIGLTTPSSYLSNVLDDNICGADKAPWTTYTTYTTTEKCNKERDKSKSQSSDTLVVVNVPSPLGNTPYRYKYACQCKIPTNEETCDDRKEYMNQWSCGSARTMKRGYKNDNYELCKYNGVDVKPTTVRSNSSKLDSGRGELEGKPIPNPLLGLDSTRTGHHHHHH",internalization of rVAR2 protein,retained internalization capacity
